Results on two substances are retold here after patent publication US20200113969A1.

The target in assay [1] is MMP-9 (commercial enzyme, Sigma) (UniProt P14780). Nature of the assay: cell-based or functional assay.
For assay [2], the target named is MMP-9 present in HT29 extracellular media (human) (UniProt P14780). Nature of the assay: cell-based or functional assay.
Sequence of MMP-9 present in HT29 extracellular media (human) (P14780 20-707): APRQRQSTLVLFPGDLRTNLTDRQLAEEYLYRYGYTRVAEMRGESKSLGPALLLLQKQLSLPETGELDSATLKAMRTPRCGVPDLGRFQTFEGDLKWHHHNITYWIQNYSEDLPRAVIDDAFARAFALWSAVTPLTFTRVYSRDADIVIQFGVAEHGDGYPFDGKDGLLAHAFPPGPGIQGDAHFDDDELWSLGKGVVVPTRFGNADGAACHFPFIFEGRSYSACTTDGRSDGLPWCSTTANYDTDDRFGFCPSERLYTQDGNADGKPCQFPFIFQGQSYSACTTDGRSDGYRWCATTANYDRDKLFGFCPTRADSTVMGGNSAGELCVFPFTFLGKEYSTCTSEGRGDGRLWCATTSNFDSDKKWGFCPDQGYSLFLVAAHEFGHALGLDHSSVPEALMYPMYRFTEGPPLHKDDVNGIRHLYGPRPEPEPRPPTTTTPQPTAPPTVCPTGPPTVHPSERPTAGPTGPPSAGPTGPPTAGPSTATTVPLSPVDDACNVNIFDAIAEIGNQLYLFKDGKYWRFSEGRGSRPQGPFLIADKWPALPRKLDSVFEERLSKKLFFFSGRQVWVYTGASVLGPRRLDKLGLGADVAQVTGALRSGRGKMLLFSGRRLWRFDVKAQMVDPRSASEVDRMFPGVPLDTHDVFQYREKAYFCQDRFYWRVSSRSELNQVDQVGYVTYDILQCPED

Sequence of MMP-9 (commercial enzyme, Sigma) (P14780 107-707 limits assumed): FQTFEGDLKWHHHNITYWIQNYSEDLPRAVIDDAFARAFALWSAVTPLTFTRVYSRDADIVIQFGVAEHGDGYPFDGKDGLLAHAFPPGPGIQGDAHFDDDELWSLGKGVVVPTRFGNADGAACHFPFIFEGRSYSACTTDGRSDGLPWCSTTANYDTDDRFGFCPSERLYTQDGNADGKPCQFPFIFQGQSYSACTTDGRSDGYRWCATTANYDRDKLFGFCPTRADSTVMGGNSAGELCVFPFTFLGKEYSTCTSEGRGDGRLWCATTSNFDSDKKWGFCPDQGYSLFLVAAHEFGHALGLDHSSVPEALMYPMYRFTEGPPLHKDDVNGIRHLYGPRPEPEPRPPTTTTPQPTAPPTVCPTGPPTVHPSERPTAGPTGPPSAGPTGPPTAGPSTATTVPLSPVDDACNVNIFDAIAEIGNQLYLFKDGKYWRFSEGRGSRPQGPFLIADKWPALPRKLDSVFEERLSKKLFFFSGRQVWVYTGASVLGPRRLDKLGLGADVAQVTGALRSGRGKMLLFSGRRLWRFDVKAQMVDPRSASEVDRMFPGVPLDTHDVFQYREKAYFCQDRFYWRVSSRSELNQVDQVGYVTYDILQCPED

In assay [1], “deflamin isolated from Lupinus albus seeds (from UniProt Q53HY0 31-531; F5B8W8 73-152)” returned a gelatinolytic activity of MMP-9 on DQ-gelatin, deflamin at 100 µg/mL of over 90%. In assay [2], this substance displayed an EC50, MMP inhibition (gelatinolytic activity of HT29 media, DQ-gelatin) of 10 µg/mL and an MIC, MMP inhibition (gelatinolytic activity of HT29 media, DQ-gelatin) of under 5 µg/mL.
On to “fraction 4 of the size exclusion chromatography (Superdex 75) of the L. albus total protein extract”, for which the MMP-9 inhibitory activity, DQ gelatin assay in assay [1] came to 100%.
